The results in this text go back to PMC7188994.

The target in the assay is SspA C314S mutant from Vibrio cyclitrophicus FF75 (Vibrio cyclitrophicus FF75). Description: crystal structure; SspA C314S with cysteine substrate and PLP; hanging drop at 14°C, 1.8 M ammonium citrate pH 7.0; space group P6_(3)22, two molecules in each asymmetric unit; 1.80 Å.

“SspA C314S mutant from Vibrio cyclitrophicus FF75 (from UniProt A0AAN0N811 1-211) (enzyme)”: the stoichiometry N (in general, a count of units in the complex or per binding partner) was found to be 2.
